Assay results: patent publication US20150152166A1

How the values were obtained:
[1] = target: CMV gp116 epitope AD2 site peptide … (CMV (human cytomegalovirus)); assay: kinetic affinity measurement, method not stated; antigen taken as AD2 peptide; same value as r7, table re-sorted by koff
[2] = target: GPCMV gB (glycoprotein B of guinea pig CMV strain V545/82) (guinea pig cytomegalovirus); assay: cell-based or functional assay
[3] = target: CMV gp116 epitope AD2 site peptide … (CMV (human cytomegalovirus)); assay: kinetic affinity measurement, method not stated; antigen taken as CMV gp116 AD2 peptide

With ITC88 control antibody the Kd [1] was 1.51 nM, the koff [1] was 0.00116 s⁻¹ and the kon [1] was 767000 M⁻¹ s⁻¹. For the same substance, the neutralization of GPCMV V545/82 entry into JH4 cells; highest concentration tested without effect [2] was over 300 ng/mL, the Kd [3] was 1.51 nM and the koff [3] was 0.00116 s⁻¹. For the same substance, the kon [3] was 767000 M⁻¹ s⁻¹.
